In the supplement of paper PMC10724198:
± gives the standard deviation of the averaged measurements.

System: Saccharomyces cerevisiae
Test: protein stability index of tFT-peptide fusion (C-terminal peptide) (PSI (0-1 scale)); higher = more stable (slower turnover)
Conditions: temperature: 30 C
Experimental: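 MPS profiling in S. cerevisiae of the yeast C-terminome library: the last 12 aa of each annotated ORF are fused to the C-terminus of a sfGFP-mCherry timer, after a GGGS linker. Cells are FACS-sorted into 8 mCherry/sfGFP bins and deep-sequenced. PSI runs from 0 (unstable) to 1 (stable); wild type and das1Δ backgrounds, two technical replicates each.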

[1] = genetic background: das1 deletion

“ACHMAKPLKLPT [YHR032C-A C-terminal 12 aa]” showed a protein stability index [1] of 0.679 ± 0.017 and a protein stability index (genetic background: wild type) of 0.673 ± 0.029.

In the case of GQVIDPLKAPFK [UTP14 C-terminal 12 aa], the protein stability index [1] is reported as 0.6757 ± 0.0012 and the protein stability index (genetic background: wild type) is reported as 0.691 ± 0.043.

RDAEILAKIAKD [HSP10 C-terminal 12 aa] gave a protein stability index [1] of 0.683 ± 0.021 and a protein stability index (genetic background: wild type) of 0.677 ± 0.0077.

FTRRGWSSFFKQ [PCL9 C-terminal 12 aa] showed a protein stability index [1] of 0.684 ± 0.0086 and a protein stability index (genetic background: wild type) of 0.6647 ± 0.0024.

YKELVKKIESKN [CIT1 C-terminal 12 aa] showed a protein stability index [1] of 0.7257 ± 0.0054 and a protein stability index (genetic background: wild type) of 0.7078 ± 0.0025.

SKYNCNIPACCV [YLR122C C-terminal 12 aa] was tested, and the protein stability index [1] was 0.654 ± 0.017 and the protein stability index (genetic background: wild type) was 0.6636 ± 0.0051.

SIYILNVIRNAQ [YGR117C C-terminal 12 aa] showed a protein stability index [1] of 0.6687 ± 0.0012 and a protein stability index (genetic background: wild type) of 0.538 ± 0.0088.

Work on QRTRRRMSLYKL [TOS3 C-terminal 12 aa] yielded a protein stability index [1] of 0.807 ± 0.036 and a protein stability index (genetic background: wild type) of 0.853 ± 0.03.

Sequence NMVNFESEKVNR [YVH1 C-terminal 12 aa] has a protein stability index [1] of 0.706 ± 0.02 and a protein stability index (genetic background: wild type) of 0.662 ± 0.012.

“RKCRVYVIQDAF [YER084W-A C-terminal 12 aa]” was tested, and the protein stability index [1] was 0.6849 ± 0.0056 and the protein stability index (genetic background: wild type) was 0.67829 ± 0.00013.

Work on QRERINNYISVY [VMA6 C-terminal 12 aa] yielded a protein stability index [1] of 0.352 ± 0.02 and a protein stability index (genetic background: wild type) of 0.388 ± 0.0092.

For KWIEYVEEFQNW [FRE5 C-terminal 12 aa], the protein stability index [1] was 0.7168 ± 0.00097 and the protein stability index (genetic background: wild type) was 0.73 ± 0.016.

Sequence APEFLDWLDEEN [HEM2 C-terminal 12 aa] has a protein stability index [1] of 0.738 ± 0.011 and a protein stability index (genetic background: wild type) of 0.6793 ± 0.0033.

Sequence VVCFVSYQKLSS [OPI9 C-terminal 12 aa] has a protein stability index [1] of 0.635 ± 0.011 and a protein stability index (genetic background: wild type) of 0.168 ± 0.026.

VKKLVTDMLAKI [CFT2 C-terminal 12 aa] showed a protein stability index [1] of 0.6957 ± 0.00094 and a protein stability index (genetic background: wild type) of 0.669 ± 0.029.

SIFIASLLLAIV [FLO10 C-terminal 12 aa] gave a protein stability index [1] of 0.226 ± 0.0053 and a protein stability index (genetic background: wild type) of 0.237 ± 0.0032.

With QMRKNMTRTDEK [PKH1 C-terminal 12 aa] the protein stability index [1] was 0.671 ± 0.056 and the protein stability index (genetic background: wild type) was 0.714 ± 0.026.

For “ITSYNFLGVPFK [YLR406C-A C-terminal 12 aa]”, the protein stability index [1] was 0.746 ± 0.018 and the protein stability index (genetic background: wild type) was 0.724 ± 0.043.

FYLHGNGSDNLF [YGR153W C-terminal 12 aa] gave a protein stability index [1] of 0.7164 ± 0.0016 and a protein stability index (genetic background: wild type) of 0.711 ± 0.031.

With DVERVIRNAGRS [HSL1 C-terminal 12 aa] the protein stability index [1] was 0.693 ± 0.0082 and the protein stability index (genetic background: wild type) was 0.674 ± 0.0079.

EVLERSVLLRKR [MDJ2 C-terminal 12 aa] showed a protein stability index [1] of 0.699 ± 0.017 and a protein stability index (genetic background: wild type) of 0.688 ± 0.01.

Sequence KIRPTFGDNQAS [HST3 C-terminal 12 aa] has a protein stability index [1] of 0.6923 ± 0.001 and a protein stability index (genetic background: wild type) of 0.73 ± 0.043.

In the case of NTVELLNIPLTS [YLR345W C-terminal 12 aa], the protein stability index [1] is reported as 0.6555 ± 0.0055 and the protein stability index (genetic background: wild type) is reported as 0.649 ± 0.0043.

For AFIFGNYKDILT [RGA1 C-terminal 12 aa], the protein stability index [1] was 0.755 ± 0.01 and the protein stability index (genetic background: wild type) was 0.7204 ± 0.0034.

KHKNILPFNFTK [YEL074W C-terminal 12 aa] gave a protein stability index [1] of 0.703 ± 0.037 and a protein stability index (genetic background: wild type) of 0.741 ± 0.0086.

TKVIQVQKKCIQ [IRC14 C-terminal 12 aa] showed a protein stability index [1] of 0.688 ± 0.026 and a protein stability index (genetic background: wild type) of 0.672 ± 0.032.

RLGLDWQPDSVS [MTH1 C-terminal 12 aa] was tested, and the protein stability index [1] was 0.695 ± 0.01 and the protein stability index (genetic background: wild type) was 0.686 ± 0.039.

IKSLFSLAKEAS [MSC7 C-terminal 12 aa] gave a protein stability index [1] of 0.703 ± 0.01 and a protein stability index (genetic background: wild type) of 0.5867 ± 0.0023.

Work on SAIEEGISLNKG [TEL2 C-terminal 12 aa] yielded a protein stability index [1] of 0.7058 ± 0.0048 and a protein stability index (genetic background: wild type) of 0.701 ± 0.012.

SETIEELLKEVE [HYR1 C-terminal 12 aa] showed a protein stability index [1] of 0.708 ± 0.0081 and a protein stability index (genetic background: wild type) of 0.7 ± 0.015.

SAIADDDEEHKE [LHP1 C-terminal 12 aa] showed a protein stability index [1] of 0.7103 ± 0.0044 and a protein stability index (genetic background: wild type) of 0.678 ± 0.051.

Work on SKQEKPLSRPKD [GPI15 C-terminal 12 aa] yielded a protein stability index [1] of 0.718 ± 0.013 and a protein stability index (genetic background: wild type) of 0.684 ± 0.022.

Work on YDEDEGSDYDFI [SUP45 C-terminal 12 aa] yielded a protein stability index [1] of 0.6992 ± 0.0034 and a protein stability index (genetic background: wild type) of 0.684 ± 0.012.

NAEKAAGQKKED [YLL053C C-terminal 12 aa] showed a protein stability index [1] of 0.695 ± 0.034 and a protein stability index (genetic background: wild type) of 0.658 ± 0.018.

In the case of KLAEHGAKKQKI [GCD10 C-terminal 12 aa], the protein stability index [1] is reported as 0.7217 ± 0.0024 and the protein stability index (genetic background: wild type) is reported as 0.659 ± 0.016.

For KRAELASKYIYS [COG8 C-terminal 12 aa], the protein stability index [1] was 0.713 ± 0.022 and the protein stability index (genetic background: wild type) was 0.692 ± 0.015.

THTHHNPNPTLF [YNL338W C-terminal 12 aa] was tested, and the protein stability index [1] was 0.707 ± 0.011 and the protein stability index (genetic background: wild type) was 0.716 ± 0.075.

In the case of FMGGFLSKGNKR [ROG3 C-terminal 12 aa], the protein stability index [1] is reported as 0.706 ± 0.012 and the protein stability index (genetic background: wild type) is reported as 0.683 ± 0.029.

IEERLVAIAEQD [SCL1 C-terminal 12 aa] showed a protein stability index [1] of 0.7091 ± 0.0065 and a protein stability index (genetic background: wild type) of 0.7 ± 0.017.

IFQEAIDKTVEI [YML082W C-terminal 12 aa] showed a protein stability index [1] of 0.708 ± 0.0011 and a protein stability index (genetic background: wild type) of 0.706 ± 0.029.

Work on YNKLKGAGHKKE [PAI3 C-terminal 12 aa] yielded a protein stability index [1] of 0.6777 ± 0.0045 and a protein stability index (genetic background: wild type) of 0.645 ± 0.0076.
